Measured values reported in US20170189505A1.

Target: HLA-A*24 (human)
Experiment: UV peptide exchange, anti-b2m ELISA

Binder | peptide exchange yield
YYEVHKELF [SEQ ID No 175 peptide …] | > 75%
VHIPEVYLI [SEQ ID No 205 peptide …] | 50 to 75%
TYTTVPRVAF [SEQ ID No 172 peptide …] | > 75%
TYLRDQHFL [SEQ ID No 187 peptide …] | > 75%
EYINQGDLHEF [SEQ ID No 275 peptide …] | 50 to 75%
TYIESASEL [SEQ ID No 279 peptide …] | 50 to 75%
TYTQDFNKF [SEQ ID No 208 peptide …] | 50 to 75%
KYMVYPQTF [SEQ ID No 267 peptide …] | > 75%
VYVGGGQIIHL [SEQ ID No 174 peptide …] | 50 to 75%
QYLENLEKL [SEQ ID No 224 peptide …] | 50 to 75%
GFFIFNERF [SEQ ID No 190 peptide …] | 50 to 75%
EFGSLHLEFL [SEQ ID No 194 peptide …] | < 20%
KFVDSTFYL [SEQ ID No 282 peptide …] | > 75%
FYSRLLQKF [SEQ ID No 203 peptide …] | 50 to 75%
IFPQFLYQF [SEQ ID No 186 peptide …] | > 75%
KYPVEWAKF [SEQ ID No 289 peptide …] | > 75%
WYVNGVNYF [SEQ ID No 189 peptide …] | 20 to 49%
FFPPTRQMGLLF [SEQ ID No 217 peptide …] | > 75%
VYPWLGALL [SEQ ID No 177 peptide …] | > 75%
YYVYIMNHL [SEQ ID No 225 peptide …] | 50 to 75%
RFHPTPLLL [SEQ ID No 193 peptide …] | > 75%
VYRDETGELF [SEQ ID No 226 peptide …] | 50 to 75%
YFDKVVTL [SEQ ID No 215 peptide YFDKVVTL] | 20 to 49%
IFIEVFSHF [SEQ ID No 178 peptide …] | 50 to 75%
IYKVGAPTI [SEQ ID No 185 peptide …] | 50 to 75%

Binder | peptide exchange yield
YYVESGKLF [SEQ ID No 166 peptide …] | > 75%
LYIDRPLPYL [SEQ ID No 196 peptide …] | 50 to 75%
RYPDNLKHL [SEQ ID No 286 peptide …] | 20 to 49%
IFLDYEAGTLSF [SEQ ID No 227 peptide …] | > 75%
IYDDSFIRPVTF [SEQ ID No 180 peptide …] | 50 to 75%
EYSLFPGQVVI [SEQ ID No 197 peptide …] | 50 to 75%
RYSTGLAGNLL [SEQ ID No 221 peptide …] | 50 to 75%
EYPLVINTL [SEQ ID No 219 peptide …] | 50 to 75%
AYLHSHALI [SEQ ID No 274 peptide …] | > 75%
IYLVSIPEL [SEQ ID No 161 peptide …] | > 75%
TYGDAGLTYTF [SEQ ID No 283 peptide …] | 50 to 75%
NYINRILKL [SEQ ID No 167 peptide …] | > 75%
VFTRVSSFL [SEQ ID No 162 peptide …] | 50 to 75%
KYIPYKYVI [SEQ ID No 223 peptide …] | 50 to 75%
RYFKGLVF [SEQ ID No 188 peptide RYFKGLVF] | 50 to 75%
HYSQELSLLYL [SEQ ID No 158 peptide …] | > 75%
RYISDQLFTNF [SEQ ID No 278 peptide …] | > 75%
LYLDKATLI [SEQ ID No 198 peptide …] | 50 to 75%
LYHDIFSRL [SEQ ID No 271 peptide …] | > 75%
LFIPSSKLLFL [SEQ ID No 171 peptide …] | 50 to 75%
VYGFQWRHF [SEQ ID No 276 peptide …] | > 75%
VFQNFPLLF [SEQ ID No 184 peptide …] | > 75%
KYTSWYVAL [SEQ ID No 228 peptide …] | > 75%
VFKASKITF [SEQ ID No 191 peptide …] | 50 to 75%
LYLDIINLF [SEQ ID No 181 peptide …] | > 75%

Binder | peptide exchange yield
LYLKLWNLI [SEQ ID No 214 peptide …] | 50 to 75%
QYLQDAYSF [SEQ ID No 272 peptide …] | > 75%
EYNQWFTKL [SEQ ID No 176 peptide …] | 50 to 75%
LYNKGFIYL [SEQ ID No 159 peptide …] | > 75%
VYTLDIPVL [SEQ ID No 160 peptide …] | > 75%
DYTTWTALL [SEQ ID No 165 peptide …] | > 75%
KFSSFSLFF [SEQ ID No 164 peptide …] | 50 to 75%
RYPDNLKHLYL [SEQ ID No 280 peptide …] | > 75%
TYSVSFPMF [SEQ ID No 195 peptide …] | > 75%
SYALLTYMI [SEQ ID No 192 peptide …] | > 75%
VYEDQVGKF [SEQ ID No 170 peptide …] | 20 to 49%
IYTMIYRNL [SEQ ID No 210 peptide …] | > 75%
VYVSDIQEL [SEQ ID No 288 peptide …] | 50 to 75%
IYSWILDHF [SEQ ID No 173 peptide …] | > 75%
RYLNKAFHI [SEQ ID No 284 peptide …] | 50 to 75%
KYQDILETI [SEQ ID No 168 peptide …] | > 75%
IYQLDTASI [SEQ ID No 182 peptide …] | 50 to 75%
DYLKGLASF [SEQ ID No 163 peptide …] | > 75%
QYSSVFKSL [SEQ ID No 216 peptide …] | > 75%
EYQENFLSF [SEQ ID No 206 peptide …] | 50 to 75%
VFTSTARAF [SEQ ID No 183 peptide …] | 50 to 75%
YYLEVGKTLI [SEQ ID No 211 peptide …] | > 75%
TYIKPISKL [SEQ ID No 273 peptide …] | 50 to 75%
MYDSYWRQF [SEQ ID No 179 peptide …] | > 75%
AYTLIAPNI [SEQ ID No 169 peptide …] | 50 to 75%
